# T1: ETS1 (Homo sapiens, UniProt P14921)
# T1 sequence: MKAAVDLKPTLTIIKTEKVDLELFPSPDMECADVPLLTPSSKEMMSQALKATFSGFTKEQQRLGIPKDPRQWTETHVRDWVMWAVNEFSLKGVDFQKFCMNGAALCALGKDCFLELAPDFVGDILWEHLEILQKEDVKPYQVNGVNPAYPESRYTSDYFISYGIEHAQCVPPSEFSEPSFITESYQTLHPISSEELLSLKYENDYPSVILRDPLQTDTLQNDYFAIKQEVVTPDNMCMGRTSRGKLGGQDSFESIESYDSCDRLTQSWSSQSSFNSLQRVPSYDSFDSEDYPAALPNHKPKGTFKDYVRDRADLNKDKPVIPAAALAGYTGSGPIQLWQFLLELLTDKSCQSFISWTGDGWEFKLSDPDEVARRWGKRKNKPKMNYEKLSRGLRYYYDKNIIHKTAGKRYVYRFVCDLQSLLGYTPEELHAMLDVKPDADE
# Molecular target: T1, ETS1
# Experiment: gcPBM; 1 nM ETS1
# Conditions: tags: N-terminal GST (pDEST15), kept (PMC6008103); label: surface-attached array probe
row,Binder,binding signal
1,Table S2 B row 713 (dsDNA) DNA 1: CCCTTCCGCGTGGGTTGCACCTGCTAATCACAGAGC DNA 2: GCTCTGTGATTAGCAGGTGCAACCCACGCGGAAGGG,"1660 PBM fluorescence, median of replicate spots"
2,Table S2 B row 2398 (dsDNA) DNA 1: GCTTTGCAGTTTCCTCTATGGAACACCAGACACAGT DNA 2: ACTGTGTCTGGTGTTCCATAGAGGAAACTGCAAAGC,"2540 PBM fluorescence, median of replicate spots"
3,Table S2 B row 1848 (dsDNA) DNA 1: TCCCGGGGAGGAAGTGGCGAGAATTCGGGGGTGGGC DNA 2: GCCCACCCCCGAATTCTCGCCACTTCCTCCCCGGGA,"2460 PBM fluorescence, median of replicate spots"
4,Table S2 B row 3076 (dsDNA) DNA 1: AGGCCTCGCTTCCTCTCCTGAGCACACCCTGCAGCT DNA 2: AGCTGCAGGGTGTGCTCAGGAGAGGAAGCGAGGCCT,"2200 PBM fluorescence, median of replicate spots"
5,Table S2 B row 269 (dsDNA) DNA 1: AGAAAAGGAAATGGTGGGCTGCACACCCCAGCTCAC DNA 2: GTGAGCTGGGGTGTGCAGCCCACCATTTCCTTTTCT,"1890 PBM fluorescence, median of replicate spots"
6,Table S2 B row 3457 (dsDNA) DNA 1: CCACTGCCGGAAGGGGAACTCTGGGGGTGCGCGAGT DNA 2: ACTCGCGCACCCCCAGAGTTCCCCTTCCGGCAGTGG,"2580 PBM fluorescence, median of replicate spots"
7,Table S2 B row 1406 (dsDNA) DNA 1: GCACACACACATCCTCCCGGCCCGGCCGCCGCCGCT DNA 2: AGCGGCGGCGGCCGGGCCGGGAGGATGTGTGTGTGC,"2180 PBM fluorescence, median of replicate spots"
8,Table S2 B row 1694 (dsDNA) DNA 1: CCCTTCCTGAGGGCAAGGCGAGGGCACCTACAGCCT DNA 2: AGGCTGTAGGTGCCCTCGCCTTGCCCTCAGGAAGGG,"1830 PBM fluorescence, median of replicate spots"
9,Table S2 B row 3763 (dsDNA) DNA 1: GCGCCCCGTCCTTCCGCAGCCCAAGCGCCTCTTCCC DNA 2: GGGAAGAGGCGCTTGGGCTGCGGAAGGACGGGGCGC,"1510 PBM fluorescence, median of replicate spots"
10,Table S2 B row 618 (dsDNA) DNA 1: GCGCAAGGATCCGGTTTGTTCTGGTGTGGGGAGGGG DNA 2: CCCCTCCCCACACCAGAACAAACCGGATCCTTGCGC,"2310 PBM fluorescence, median of replicate spots"
11,Table S2 B row 1455 (dsDNA) DNA 1: AGTGAGCTTCCTCCTGAGGCCTGAGGCAACCCCAGG DNA 2: CCTGGGGTTGCCTCAGGCCTCAGGAGGAAGCTCACT,"1620 PBM fluorescence, median of replicate spots"
12,Table S2 B row 1838 (dsDNA) DNA 1: GTACGTTTCCTCATTGACTGGCCAACGACTATCATG DNA 2: CATGATAGTCGTTGGCCAGTCAATGAGGAAACGTAC,"2340 PBM fluorescence, median of replicate spots"
13,Table S2 B row 2482 (dsDNA) DNA 1: TGCGACGGAAGCAGGAACTTGCTAACTACAAAACCC DNA 2: GGGTTTTGTAGTTAGCAAGTTCCTGCTTCCGTCGCA,"1960 PBM fluorescence, median of replicate spots"
14,Table S2 B row 3942 (dsDNA) DNA 1: GAAATTTCCGCTTTCTTTCTGCAGCAGGAACCTCGG DNA 2: CCGAGGTTCCTGCTGCAGAAAGAAAGCGGAAATTTC,"21200 PBM fluorescence, median of replicate spots"
15,Table S2 B row 1649 (dsDNA) DNA 1: CCCCCACATCCTGTTTGGTTAGTGGGACACCTCAAC DNA 2: GTTGAGGTGTCCCACTAACCAAACAGGATGTGGGGG,"23400 PBM fluorescence, median of replicate spots"
16,Table S2 B row 528 (dsDNA) DNA 1: CGAACTACATCCTCTGAGGTGTAGCTTTTTGGCCTG DNA 2: CAGGCCAAAAAGCTACACCTCAGAGGATGTAGTTCG,"2040 PBM fluorescence, median of replicate spots"
17,Table S2 B row 753 (dsDNA) DNA 1: AGGGACTTCCGGTGACCAGAGCACTAGCGCCGTAAA DNA 2: TTTACGGCGCTAGTGCTCTGGTCACCGGAAGTCCCT,"55700 PBM fluorescence, median of replicate spots"
18,Table S2 B row 1194 (dsDNA) DNA 1: TGAGTTTTGTTTCCGATTCACCTCAGAAGATACTTT DNA 2: AAAGTATCTTCTGAGGTGAATCGGAAACAAAACTCA,"1570 PBM fluorescence, median of replicate spots"
19,Table S2 B row 2289 (dsDNA) DNA 1: GAGGAAAGGAAGTCAAGGCCAGGGCCGAAGAGGCCA DNA 2: TGGCCTCTTCGGCCCTGGCCTTGACTTCCTTTCCTC,"1410 PBM fluorescence, median of replicate spots"
20,Table S2 B row 1285 (dsDNA) DNA 1: TTAAACACGGAAGTGCATCGGTTGTTGTAGTTATTC DNA 2: GAATAACTACAACAACCGATGCACTTCCGTGTTTAA,"2090 PBM fluorescence, median of replicate spots"
21,Table S2 B row 2632 (dsDNA) DNA 1: TACGTCACTTCCGGGCCGCCGTCCTGCAGGCAAGGG DNA 2: CCCTTGCCTGCAGGACGGCGGCCCGGAAGTGACGTA,"21800 PBM fluorescence, median of replicate spots"

row,Binder,binding signal
1,Table S2 B row 4071 (dsDNA) DNA 1: ATGGAAATGTCGTTAAGAACTTCCTCTTTTACTAGA DNA 2: TCTAGTAAAAGAGGAAGTTCTTAACGACATTTCCAT,"2700 PBM fluorescence, median of replicate spots"
2,Table S2 B row 2614 (dsDNA) DNA 1: GGCTTCCGCGCCTGCAGAACTACAGCTCCCAGAAGG DNA 2: CCTTCTGGGAGCTGTAGTTCTGCAGGCGCGGAAGCC,"2000 PBM fluorescence, median of replicate spots"
3,Table S2 B row 1424 (dsDNA) DNA 1: TGCTTGTCCGGTGGCTGCTGCGCTGCCGAAACGAAT DNA 2: ATTCGTTTCGGCAGCGCAGCAGCCACCGGACAAGCA,"1420 PBM fluorescence, median of replicate spots"
4,Table S2 B row 3693 (dsDNA) DNA 1: ACCAAAACACATCCTGGGGCCCCTCACAATTAGTGA DNA 2: TCACTAATTGTGAGGGGCCCCAGGATGTGTTTTGGT,"2280 PBM fluorescence, median of replicate spots"
5,Table S2 B row 2348 (dsDNA) DNA 1: CAAAAGTGCTTCCTCTCGAGGGGTTGTAGTTCTTAC DNA 2: GTAAGAACTACAACCCCTCGAGAGGAAGCACTTTTG,"1960 PBM fluorescence, median of replicate spots"
6,Table S2 B row 1696 (dsDNA) DNA 1: CTCATCAGTCATCCGGCTGGACTGCAGGAGCTCTCC DNA 2: GGAGAGCTCCTGCAGTCCAGCCGGATGACTGATGAG,"1700 PBM fluorescence, median of replicate spots"
7,Table S2 B row 1819 (dsDNA) DNA 1: CCGATTTCCCCGGACGTGGTGAGACGGCGCTTCGTC DNA 2: GACGAAGCGCCGTCTCACCACGTCCGGGGAAATCGG,"1790 PBM fluorescence, median of replicate spots"
8,Table S2 B row 4047 (dsDNA) DNA 1: CCGCTCTTCCTGGAGGTCTCTTGGCCGCTCACCCTC DNA 2: GAGGGTGAGCGGCCAAGAGACCTCCAGGAAGAGCGG,"1540 PBM fluorescence, median of replicate spots"
9,Table S2 B row 56 (dsDNA) DNA 1: CAGAGAAACAGGAAGAACAGTGCTTTCAACTGAAAT DNA 2: ATTTCAGTTGAAAGCACTGTTCTTCCTGTTTCTCTG,"2500 PBM fluorescence, median of replicate spots"
10,Table S2 B row 1755 (dsDNA) DNA 1: CAGAAAGAGGAAATGATGCGAGTCCACACCGAAGGC DNA 2: GCCTTCGGTGTGGACTCGCATCATTTCCTCTTTCTG,"2640 PBM fluorescence, median of replicate spots"
11,Table S2 B row 606 (dsDNA) DNA 1: TCCGGAAGTCGGAGGAACACCCCAGCCGGCGCAGCC DNA 2: GGCTGCGCCGGCTGGGGTGTTCCTCCGACTTCCGGA,"2610 PBM fluorescence, median of replicate spots"
12,Table S2 B row 992 (dsDNA) DNA 1: TATCGACAAAAGTTCCGGCCCGCGGCAGCGGAGGGA DNA 2: TCCCTCCGCTGCCGCGGGCCGGAACTTTTGTCGATA,"1930 PBM fluorescence, median of replicate spots"
13,Table S2 B row 1189 (dsDNA) DNA 1: TCCAGCGGAAGGGGGCATCTTTACGGCAGAGGCAGC DNA 2: GCTGCCTCTGCCGTAAAGATGCCCCCTTCCGCTGGA,"1600 PBM fluorescence, median of replicate spots"
14,Table S2 B row 1261 (dsDNA) DNA 1: ACTCCAGAGGAAGTGGCAAGACGAGCGCGGCAACGG DNA 2: CCGTTGCCGCGCTCGTCTTGCCACTTCCTCTGGAGT,"2240 PBM fluorescence, median of replicate spots"
15,Table S2 B row 3568 (dsDNA) DNA 1: GAACCCCAAGTTCCGGCTGGCACTGCGCCGGAGCCT DNA 2: AGGCTCCGGCGCAGTGCCAGCCGGAACTTGGGGTTC,"2450 PBM fluorescence, median of replicate spots"
16,Table S2 B row 591 (dsDNA) DNA 1: CACCTCCTACTTCCCCCCGCTGATAACTACCAACCC DNA 2: GGGTTGGTAGTTATCAGCGGGGGGAAGTAGGAGGTG,"1740 PBM fluorescence, median of replicate spots"
17,Table S2 B row 1905 (dsDNA) DNA 1: ACTTCCAGGAAGCCCCATAGTCCAGAAACCTACACA DNA 2: TGTGTAGGTTTCTGGACTATGGGGCTTCCTGGAAGT,"2110 PBM fluorescence, median of replicate spots"
18,Table S2 B row 1858 (dsDNA) DNA 1: TGGCTTCCTGTCTGTCCTTCATCAGCCCAGAGAGGC DNA 2: GCCTCTCTGGGCTGATGAAGGACAGACAGGAAGCCA,"20600 PBM fluorescence, median of replicate spots"
19,Table S2 B row 1511 (dsDNA) DNA 1: GCACCGTGGCACTTCCGCGAGCGCCGCTGGCCCTGC DNA 2: GCAGGGCCAGCGGCGCTCGCGGAAGTGCCACGGTGC,"2410 PBM fluorescence, median of replicate spots"
20,Table S2 B row 3748 (dsDNA) DNA 1: GATTCATATCCTCCTCTATGCAACGACAGCATCTTC DNA 2: GAAGATGCTGTCGTTGCATAGAGGAGGATATGAATC,"2160 PBM fluorescence, median of replicate spots"
21,Table S2 B row 2334 (dsDNA) DNA 1: CCCCTCGCCCTTCCGCATTGCGTGTTACTTCGGTTG DNA 2: CAACCGAAGTAACACGCAATGCGGAAGGGCGAGGGG,"1460 PBM fluorescence, median of replicate spots"
